We go through two molecules from PMC4874835 (Nature, 2016).

The target of series [1] is cMCU-ΔNTD (C. elegans MCU residues 167-316, N-terminal domain deleted) (C. elegans) (UniProt Q21121). The experiment in a line: negative stain EM.
Series [2] has the same target. The experiment in a line: SEC-MALS. (In general: SEC sorts molecules by how far they enter the pores of the column.)
Series [3] has the same target. The experiment in a line: cross-linking.
The series “cross-linking” deals with the molecule itself. The experiment in a line: cross-linking.

Broadly, the stoichiometry N is the number of molecules, sites or subunits per partner or assembly.

As for “cMCU-ΔNTD (C. elegans MCU residues 167-316, N-terminal domain deleted) (from UniProt Q21121 167-316) (domain or fragment)”, the stoichiometry N in series [1], in series [2] and in series [3] was 5 in each case.
On to KQNFDIEKYNRLVTEVDELRNQLKRMRDPLE [CCH peptide (cMCU residues 288-316 plus C-terminal L and E)], for which the “stoichiometry N” value in the series “cross-linking” stood at 5.
